In general, Kd refers to the constant that tells how readily two partners part at equilibrium. A low value points to a tighter complex.

The text below walks through data of article PMC4222533 (Biochemistry, 2014).

The target of the assay is integrin αIIb cytoplasmic tail peptide (starting from W988). The assay can be described thus: ITC. (In general: In ITC the heat of successive injections is recorded.)

B1: skelemin tandem IgC2 domains 4 and 5 with the interconnecting linker, C1354S (domain or fragment)
chain: DEEEMKRLLALSQEHKFPTVPTKSELAVEILEKGQVRFWMQAEKLSSNAKVSYIFNEKEIFEGPKYKMHIDRNTGIIEMFMEKLQDEDEGTYTFQIQDGKATGHSTLVLIGDVYKKLQKEAEFQRQEWIRKQGPHFAEYLSWEVTGESNVLLKCKVANIKKETHIVWYKDEREISVDEKHDFKDGICTLLITEFSKKDAGFYEVILKDDRGKDKSRLKLVD
modifications: uniformly 15N or 15N/13C labelled for NMR
For B1, the affinity, expressed as Kd, was 14.2 ± 4.3 µM.
